Assay [1] deals with HCoV-OC43 S1-CTD (residues 318-608), Fc- and His-tagged (HCoV-OC43). Kind of assay: SPR.
In assay [2] the target is T1, HCoV-HKU1 RBD (residues 310-606 of isolate N5), Fc- and His-tagged (HCoV-HKU1 (isolate N5), UniProt Q0ZME7 310-606).
T1 chain: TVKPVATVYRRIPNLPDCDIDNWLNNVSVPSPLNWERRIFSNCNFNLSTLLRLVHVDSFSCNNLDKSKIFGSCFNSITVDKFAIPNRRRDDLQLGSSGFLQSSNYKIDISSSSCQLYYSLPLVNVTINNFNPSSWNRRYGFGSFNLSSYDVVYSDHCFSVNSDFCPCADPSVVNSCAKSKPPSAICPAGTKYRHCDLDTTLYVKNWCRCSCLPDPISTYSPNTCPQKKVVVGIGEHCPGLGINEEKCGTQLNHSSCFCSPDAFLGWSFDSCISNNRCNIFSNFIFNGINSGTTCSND
As to the kind of experiment: SPR. For orientation: In SPR one partner is held on a chip, and binding of the other changes the refractive index at the surface.

For a further assay, the target named is H501-009. Kind of assay: BLI.
The target of a further assay is H501-016. As to the kind of experiment: BLI.
In the next assay the target is H501-013. Kind of assay: BLI. For orientation: BLI is a label-free optical method that tracks binding on a fibre tip over time.
Another assay has as its target H501-012. As to the kind of experiment: BLI.
For the next assay, the target named is H501-020. As to the kind of experiment: BLI.
The target in a further assay is H501-015. Kind of assay: BLI.
The target of the next assay is H501-003. As to the kind of experiment: BLI.

Bounds are passed on as bounds.

For orientation: koff means the first-order rate constant of dissociation. The term Kd denotes a measure of binding affinity in units of concentration.

B1: H501-008 Fab (Fab, V domains shown)
VH: QVQLVQSGGGVVQPGRSLRLSCAVSGFTLDRYAMHWVRQAPGKALEWVALMSADGREQYYAESVKGRFTFSRDSSKNTLYLQMHNLRTDDSSVYFCAREGPMYYDAWSGRSYYNNYALDVWGRGTTVAVSS
VL: QSVLTQPPSVSAAPGQTVTISCSGSSSNIGDNYVSWYQQVPGTAPRLLVYDNNRRPLGIPDRFSGSKSGTSATLAIAGLQTGDEADYYCGTWDSSLSAGVFGGGTKLTVV
Turning to B1, the koff in assay [1] amounted to 0.042 s⁻¹; in assay [2], 0.000197 s⁻¹.

B2: HCoV-HKU1 RBD (residues 310-606 of isolate N5), as used in BLI (domain or fragment)
chain: TVKPVATVYRRIPNLPDCDIDNWLNNVSVPSPLNWERRIFSNCNFNLSTLLRLVHVDSFSCNNLDKSKIFGSCFNSITVDKFAIPNRRRDDLQLGSSGFLQSSNYKIDISSSSCQLYYSLPLVNVTINNFNPSSWNRRYGFGSFNLSSYDVVYSDHCFSVNSDFCPCADPSVVNSCAKSKPPSAICPAGTKYRHCDLDTTLYVKNWCRCSCLPDPISTYSPNTCPQKKVVVGIGEHCPGLGINEEKCGTQLNHSSCFCSPDAFLGWSFDSCISNNRCNIFSNFIFNGINSGTTCSND
With B2, the Kd with H501-009 was 5.44 nM; in the assay with H501-016, 0.176 nM; with H501-013 it was 0.915 nM; with H501-012, 1.87 nM; with H501-020, less than 0.001 nM; in the assay with H501-015 it was 0.568 nM. The molecule also yielded a Kd with H501-003 of 0.508 nM. The koff with H501-009 was 0.000383 s⁻¹; with H501-016, 3.26e-05 s⁻¹; in the assay with H501-013 it was 0.000209 s⁻¹; in the assay with H501-012, 0.000326 s⁻¹; with H501-020 it was less than 1e-07 s⁻¹; with H501-015, 0.000117 s⁻¹.

The values are drawn from paper doi:10.1101/2025.10.29.685445 (2025).
